The values that follow come from patent publication US20200062827A1.

Experiment [1] deals with therapeutic human IgG1 (Bristol-Myers Squibb) (human). Put plainly: affinity precipitation: 5 mM C12-Z33 + 20 µM IgG1, 0.6 M Na2SO4, centrifugation, A280 of supernatant.
Experiment [2] has the same target. Briefly: ITC, 15 C, PBS pH 7.4, reported per ligand.
The target is the same in experiment [3]. Briefly: ITC, 15 C, PBS pH 7.4, reported per IgG1.

As for C12-Z33 immuno-amphiphile (peptide), the percent IgG1 removed from the supernatant in experiment [1] was greater than 60%.
In experiment [2], Z33 peptide registered a -TΔS° (kcal · mol^-1) of 13.6, a dissociation constant (Kd) of 0.06 µM, a ΔG° (kcal · mol^-1) of -9.5 and a ΔH° (kcal · mol^-1) of -23.1. In experiment [3], this substance yielded a -TΔS° (kcal · mol^-1) of 43.4, a ΔG° (kcal · mol^-1) of -10 and a ΔH° (kcal · mol^-1) of -53.4.
